Source: US20260234236A1 (INTERVET, published 2026)

Key:
[1] = target: T1, Recombinant canine IL-13 (R&D Systems, Catalog: 5894-CL/CF) (canine, UniProt Q9N0W9 19-131, limits assumed); test: cell-based or functional assay
T1 sequence (looked up): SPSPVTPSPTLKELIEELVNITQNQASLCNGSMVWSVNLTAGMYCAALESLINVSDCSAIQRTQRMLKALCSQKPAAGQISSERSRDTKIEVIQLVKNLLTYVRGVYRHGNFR

[2] = target: T2, Canine IL-13 with C-terminal Avi-HIS tag (canine, biotin label when loaded on SA biosensors (Example 4); site not stated); test: BLI (OCTET HTX); biotin-mAb on SA biosensors, cIL-13 in solution; 1:1 model
T2 construct: also called cIL-13; biotinylated avitag-cIL13
T2 chain: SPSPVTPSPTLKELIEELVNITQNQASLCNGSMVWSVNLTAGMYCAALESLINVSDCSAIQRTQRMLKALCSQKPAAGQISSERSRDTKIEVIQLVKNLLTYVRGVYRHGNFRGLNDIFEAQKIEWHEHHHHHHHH
Experimental: (§1) Selected scFv specific to cIL-4 or cIL-13 were converted into full length canine IgG mAbs and tested for binding by OCTET. All kinetics measurements were performed by OCTET HTX using SA biosensors and Data Acquisition 12.0 software. First, each biotin-labeled full-length anti-canine IL-4 or anti-canine IL-13 mAb, at a concentration of 5 μg/mL, were loaded onto the pre-rehydrated SA biosensors until binding signal change ascended to a […] threshold for all channels from the step start or for a maximum of 1200s to insure equal loading density. Second, the biosensors were placed into OCTET Kinetics Buffer (PBS+0.02% Tween20, 0.1% BSA) for the blocking phase for 60s. Third, for the association phase, full-length anti-canine IL-4 mAb or anti-canine IL-13 mAb loaded biosensors were placed into 2-fold serial dilutions from 1000 nM down to 15.6 nM of cIL-4 or cIL-13, respectively, in OCTET Kinetics Buffer for 60s. The last well was buffer alone and that sensor was used for reference sensor subtraction. Finally, the biosensors were placed into OCTET Kinetics Buffer for the dissociation phase for 180s. Analysis was performed using Data Analysis 12.0 software and curves were fitted using a 1:1 binding model.

[3] = target: T3, Recombinant canine IL-4 (R&D Systems, Catalog: 752-CL/CF) (canine, UniProt O77762 25-132); test: cell-based or functional assay
T3 sequence (looked up): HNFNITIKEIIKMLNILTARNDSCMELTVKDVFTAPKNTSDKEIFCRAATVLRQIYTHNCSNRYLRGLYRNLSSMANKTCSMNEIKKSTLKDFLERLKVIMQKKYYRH

[4] = target: T4, Canine IL-4 with C-terminal Avi-HIS tag (canine, biotin label when loaded on SA biosensors (Example 4); site not stated); test: DSS cross-linking and High-Mass MALDI MS
T4 construct: also called cIL-4; biotinylated avitag-cIL-4
T4 chain: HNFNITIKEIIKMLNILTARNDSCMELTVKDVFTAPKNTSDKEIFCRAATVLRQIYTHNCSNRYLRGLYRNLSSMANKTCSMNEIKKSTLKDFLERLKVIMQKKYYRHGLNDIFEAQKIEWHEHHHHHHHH
Excerpt: In order to identify potentially discontinuous epitopes recognized by the antibodies of the present invention to their respective antigens, e.g., canine IL-4 or canine IL-13, a method was employed that was based on chemical crosslinking using disuccinimidyl suberate (DSS) and mass spectrometry detection (XL-MS) at CovalX Inc. (CovalX® Instrument Incorporated; Covalx.com). With this method, the binding of a canine antibody to its corresponding canine antigen in the presence of a mass-labeled chemical crosslinker is performed. The cross-linking experiments allow the direct analysis of non-covalent interaction by High-Mass MALDI (matrix assisted laser desorption ionization) mass spectrometry. […] The covalent binding generated allows the interacting species to survive the sample preparation process and the MALDI ionization. A High-Mass detection system allows characterizing the interaction in the High-Mass range.
The presence of the antigen-antibody complex were confirmed using High Mass MALDI detection. […]

[5] = target: T4, Canine IL-4 with C-terminal Avi-HIS tag; test: BLI (OCTET HTX); biotin-mAb on SA biosensors, cIL-4 in solution; 1:1 model
Experimental: as §1

B1: IL13-P3-1C6VH-cIgGB/IL13-P3-1C6VL-cCL (antibody, V domains shown)
VH: ELTLQESGPGLVKPSQTLSLTCVVSGGSVTNTYEWDWIRQRPGRGLEWMGSWTDNTWYNPAFQGRISITADTAKNQLSLQLSSVTTGDTAVYFCARWTKRWGYDYWGQGTLVTVSS
VL: QSVLTQPASVSGSLGQRVTISCSGRTNNIGYFGANWYQQVPGKAPKLLVSSYGNRPSGVPDRFSASNSANSATLTITGLQAEDEADYYCQSFDTTLGAVVFGGGTQLTVLG
IL-13 IC50 (nM); inhibition of canine IL-13 mediated STAT6 phosphorylation in DH82 cells [1]: 47.9 nM

B2: IL13-P3-05VH-cIgGB/IL13-P3-05VL-cCL (antibody, V domains shown)
VH: EVQLVESGGDSVRPGGSLRLSCVASGFTFSRYNMGWVRQAPGKGLQWVAWIYDGGSRTSYADAVKGRFTISRDNAKDTLYLQMDDLRVDDTAVYYCARDPSSWGSLFDYWGQGTLVTVSS
VL: SYVLTQPPSVTVPLRQTARISCGGDNIRSKNVHWYQQKPGQAPVLIIYNDSNRPTGIPERFSGSNSGNMATLTIRGALAEDEADYYCQVWANDGYVFGSGTQLTVLG
notes: Full-length canine IgG-B
Kd [2]: 5.58 nM
koff [2]: 0.00148 s⁻¹
kon [2]: 252000 M⁻¹ s⁻¹
IL-13 IC50 (nM); inhibition of canine IL-13 mediated STAT6 phosphorylation in DH82 cells [1]: 13.1 nM

B3: IL13-P3-05VH-cIgGB/IL13-P3-05VLm-cCL (antibody, V domains shown)
VH: EVQLVESGGDSVRPGGSLRLSCVASGFTFSRYNMGWVRQAPGKGLQWVAWIYDGGSRTSYADAVKGRFTISRDNAKDTLYLQMDDLRVDDTAVYYCARDPSSWGSLFDYWGQGTLVTVSS
VL: SYVLTQPPSVTVPLRQTARISCGGDNIRSKNVHWYQQKPGQAPVLIIYQDSNRPTGIPERFSGSNSGNMATLTIRGALAEDEADYYCQVWANDGYVFGSGTQLTVLG
notes: Full-length canine IgG-B. The light chain has N replaced by Q in CDRL2 to remove a potential glycosylation site; also called IL13-P3-05Lm; IL-13 P3-05Lm
Kd [2]: 5.45 nM
koff [2]: 0.000793 s⁻¹
kon [2]: 162000 M⁻¹ s⁻¹
IL-13 IC50 (nM); inhibition of canine IL-13 mediated STAT6 phosphorylation in DH82 cells [1]: 4.44 nM

B4: IL13-P3-1G5VH-cIgGB/IL13-P3-1G5VL-cCL (antibody, V domains shown)
VH: EVQLVQSGGDLVKPGGTLRLSCVASGFTFSSYDMSWVRQSPGKGLQWVAAIWNDGSNTEYADAVKGRFTVSRDNAKNTVYLEMNSLRAEDTAMYYCVKEGPSYGYFDYWGQGTLVTVSS
VL: SYELTQPPSVSVSLGQTATISCSGESLSKYYAQWFQQKAGQAPVLVIYQDTERPSGIPDRFSGSSSGNTHTLTISGARAEDEADYYCESAISPDTYVFGSGTQLTILG
notes: Full-length canine IgG-B; also called IL13-1G5
Kd [2]: 1.19 nM
koff [2]: 0.0018 s⁻¹
kon [2]: 1.3e+06 M⁻¹ s⁻¹
IL-13 IC50 (nM); inhibition of canine IL-13 mediated STAT6 phosphorylation in DH82 cells [1]: 94.1 nM

B5: IL4-P4A-2D11VH-cIgGB/IL4-P4A-2D11VL-cCL (antibody, V domains shown)
VH: EEQLVEFGGDLVKPGESLRLSCVASGFTFNKYDMSWVRQAPGKGLQWVATVADDESFAYYTDSVKGRFTISRDNAKNTLYLQMNSLRAEDTAMYYCVGKTGSYWDIDFDLWGPGTLVTISS
VL: QAVLTQPPSVSAALGQRVTISCSGSTDNVGTVGASWYQHLPGRAPKLLVYIVGDRPSGVPDRFSGSKSGTSATLTITGLQAEDEADYYCSSWDDSLRGIVFGGGTHLTVLG
notes: Full-length canine IgG-B; also called IL4-2D11
IL-4 IC50 (nM); inhibition of canine IL-4 mediated STAT6 phosphorylation in DH82 cells [3]: 0.91 nM
binding result [4]: binds

B6: IL13-P3-1B4VH-cIgGB/IL13-P3-1B4VL-cCL (antibody)
heavy: ELTLQESGPGLVKPSQTLSLTCVVSGGSVTSNYYWNWIRQRPGRGLEWMGYWTGSTNYNPAFQGRISITADTAKNHFSLQLTSMTTEDTAVYYCARASTWLHGMDFWGHGTSLFVSSASTTAPSVFPLAPSCGSTSGSTVALACLVSGYFPEPVTVSWNSGSLTSGVHTFPSVLQSSGLYSLSSMVTVPSSRWPSETFTCNVAHPASKTKVDKPVPKRENGRVPRPPDCPKCPAPEMLGGPSVFIFPPKPKDTLLIARTPEVTCVVVDLDPEDPEVQISWFVDGKQMQTAKTQPREEQFNGTYRVVSVLPIGHQDWLKGKQFTCKVNNKALPSPIERTISKARGQAHQPSVYVLPPSREELSKNTVSLTCLIKDFFPPDIDVEWQSNGQQEPESKYRTTPPQLDEDGSYFLYSKLSVDKSRWQRGDTFICAVMHEALHNHYTQESLSHSPGK
light: SYVLTQSPSVSGSLGQTVTISCSGTTIGVVGANWYQQLPGKAPKLLVHSDGGRLSGVPDRFSGSESGNSAALTITGLQAEDEADYYCQSFDTTLGYVFGSGTQLTILGQPKASPSVTLFPPSSEELGANKATLVCLISDFYPSGVTVAWKADGSPVTQGVETTKPSKQSNNKYAASSYLSLTPDKWKSHSSFSCLVTHEGSTVEKKVAPAECS
notes: Full-length canine IgG-B; also called IL13-1B4
Kd [2]: 8.12 nM
koff [2]: 0.00208 s⁻¹
kon [2]: 256000 M⁻¹ s⁻¹
IL-13 IC50 (nM); inhibition of canine IL-13 mediated STAT6 phosphorylation in DH82 cells [1]: 97.5 nM

B7: IL4-P4A-1A10VH-cIgGB/IL4-P4-1A10VL-cCL (antibody, V domains shown)
VH: EVQLVESGGDLVKPGGSLRLSCVASGFTFSDYDMTWVRQAPGKGLQWVADINNGGSSTTYADAVKGRFTISRDNAKNTLYLQMNSLRAEDTAMYYCAKEGDNTWLSFDSWGQGTLVTVSS
VL: QSVLNQLPSVSGSLGQKVTIRCSGNTDNIGMVGAAWYRQVPGEAPKLLLYSDGNRPSGVPDRFSGSDSGRSATLTITGLQPEDEADYYCQSLDPTVPGNYLFGSGTQLTILG
notes: also called IL4-P4-1A10VH-cIgGB/IL4-P4-1A10VL-cCL
IL-4 IC50 (nM); inhibition of canine IL-4 mediated STAT6 phosphorylation in DH82 cells [3]: 3.15 nM
Kd [5]: 0.846 nM
koff [5]: 0.00105 s⁻¹
kon [5]: 1.24e+06 M⁻¹ s⁻¹
